Measured values: the RNAGym collection of RNA variant scans (doi:10.7554/elife.90254)

B1: LINE1-mini (parent)
chain: GGCAGAGCUCAACACAGCGUGGCAAAGUGGCUGUGGCUAGACUGCC

Variants of: B1
Assay: self-cleavage, relative activity (ratio to wild type); higher = more cleavage; in vitro, sequencing; the parent is a self-cleaving ribozyme

Variant	self-cleavage
G5C A14U	0.06
G5C A14C	0.07
G5C A14G	0.04
G5C G22A	0.08
G5C G22C	0.13
G5C G22U	0.04
G5C A6U	0.06
G5C A6G	0.09
G5C A6C	0.23
G5C C42A	0.09
G5C C42G	0.46
G5C C42U	0.05
G5A U9C	0.04
G5A U9A	0.35
G5A U9G	0.27
G5A G44U	0.07
G5A G44C	0.06
G5A G44A	0.1
G5U A14C	0.06
G5U A14G	0.06
G5U A14U	0.07
G5C C31U	0.05
G5C C31G	0.06
G5C C31A	0.08

Variant	self-cleavage
G5C G35C	0.06
G5C G35U	0.07
G5C G35A	0.1
G5A U20G	0.13
G5A U20C	0.06
G5A U20A	0.13
G5C C23U	0.05
G5C C23G	0.04
G5C C23A	0.07
G5C C8G	0.07
G5C C8U	0.11
G5C C8A	0.18
G5C G19U	0.14
G5C G19A	0.14
G5C G19C	0.08
G5C C13A	0.09
G5C C13G	0.13
G5C C13U	0.05
G5C U38G	0.03
G5C U38C	0.05
G5C U38A	0.09
G5C G36U	0.04
G5C G36A	0.06
G5C G36C	0.06

Variant	self-cleavage
G5C A41C	0.04
G5C A41G	0.07
G5C A41U	0.09
G5C C10G	0.02
G5C C10U	0.04
G5C C10A	0.05
G5C G17C	0.03
G5C G17U	0.04
G5C G17A	0.04
G5C U20G	0.06
G5C U20A	0.04
G5C U20C	0.18
G5C A16U	0.04
G5C A16C	0.07
G5C A16G	0.04
G5C U9A	0.12
G5C U9G	0.04
G5C U9C	0.04
G5C G7C	0.08
G5C G7U	0.25
G5C G7A	0.22
G5U A6C	0.16
G5U A6G	0.07
G5U A6U	0.16

Variant	self-cleavage
G5C U43C	0.04
G5C U43G	0.13
G5C U43A	0.05
G5C U28A	0.1
G5C U28G	0.02
G5C U28C	0.05
G5C C37A	0.05
G5C C37G	0.05
G5C C37U	0.09
G5C U34A	0.06
G5C U34C	0.06
G5C U34G	0.06
G5C G33C	0.03
G5C G33A	0.09
G5C G33U	0.06
G5C G30A	0.02
G5C G30C	0.07
G5C G30U	0.17
G5U	0.14
G5C	0.07
G5C C15G	0.03
G5C C15A	0.05
G5C C15U	0.08
G5U A16U	0.06

Variant	self-cleavage
G5U A16C	0.03
G5U A16G	0.06
G5U A11U	0.04
G5U A11C	0.03
G5U A11G	0.02
G5A U28C	0.14
G5A U28G	0.2
G5A U28A	0.12
G5C G21U	0.09
G5C G21A	0.1
G5C G21C	0.04
G5C G44A	0.05
G5C G44U	0.09
G5C G44C	0.04
G5A U34A	0.07
G5A U34C	0.08
G5A U34G	0.04
G5A U38A	0.16
G5A U38G	0.02
G5A U38C	0.09
G5C A39U	0.06
G5C A39G	0.07
G5C A39C	0.07
G5C U32A	0.06

Variant	self-cleavage
G5C U32G	0.07
G5C U32C	0.1
G5C G40C	0.1
G5C G40A	0.1
G5C G40U	0.1
G5C A11G	0.05
G5C A11U	0.03
G5C A11C	0.04
G5C A24C	0.04
G5C A24U	0.07
G5C A24G	0.06
G5C C45A	0.05
G5C C45U	0.06
G5C C45G	0.05
G5A U43A	0.05
G5A U43C	0.07
G5A U43G	0.86
G5C G27U	0.09
G5C G27C	0.06
G5C G27A	0.05
G5C C46U	0.06
G5C C46A	0.09
G5C C46G	0.11
G5C A12C	0.04

Variant	self-cleavage
G5C A12G	0.05
G5C A12U	0.05
G5C A25U	0.09
G5C A25C	0.05
G5C A25G	0.06
G5C C18A	0.05
G5C C18G	0.04
G5C C18U	0.03
G5C G29A	0.05
G5C G29C	0.05
G5C G29U	0.12
G5A U32A	0.06
G5A U32C	0.07
G5A U32G	0.04
G5A G40C	0.04
G5A G40U	0.1
G5A G40A	0.11
G5U A12C	0.04
G5U A12G	0.04
G5U A12U	0.06
G5C A26C	0.06
G5C A26U	0.06
G5C A26G	0.05
